Publication PMC4788097 (Structure (London, England : 1993), 2013)

How the values were obtained:
Stx6 (3-110) [1] = molecular target: T1, Stx6 (3-110) (human, UniProt O43752 3-110); assay: crystal structure
T1 sequence (looked up): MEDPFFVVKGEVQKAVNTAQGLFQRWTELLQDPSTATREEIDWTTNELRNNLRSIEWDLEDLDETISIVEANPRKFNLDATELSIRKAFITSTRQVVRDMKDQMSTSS

Stx6 (3-110) [2] = molecular target: T1, Stx6 (3-110); assay: ITC
Stx10 (1-110) = molecular target: T2, Stx10 (1-110) (human, UniProt O60499 1-110); assay: ITC
T2 sequence (looked up): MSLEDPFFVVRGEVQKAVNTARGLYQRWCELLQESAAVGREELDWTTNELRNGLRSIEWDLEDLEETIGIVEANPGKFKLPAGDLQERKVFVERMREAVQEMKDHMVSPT

Row | Binder | binding result (Stx6 (3-110) [1]) | Kd (Stx6 (3-110) [2]) | stoichiometry N (Stx6 (3-110) [2]) | Kd (Stx10 (1-110)) | stoichiometry N (Stx10 (1-110))
1 | AHGMLKLYYGLSEGEAA [Ang2 peptide 33AHGMLKLYYGLSEGEAA49] | binds |  |  |  | 
2 | Ang2 (1-69) (domain or fragment, human, UniProt Q9UID3 1-69, looked up) MAAAAAAGPSPGSGPGDSPEGPEGEAPERRRKAHGMLKLYYGLSEGEAAGRPAGPDPLDPTDLNGAHFD |  | 5.6 ± 0.7 µM | 0.8 | 6.5 ± 0.8 µM | 0.7
